Assay results from article PMC10883267 (2023).

B1: mouse eIF4E1B (63-244) [mouse] / eIF4E-binding motif of human eIF4G (608-647) [human] (parent complex)
chain 1: KLHPLQYRWVLWFFKNDRSRAWQDNLQLVTKFNTVEDFWAVYSHIKLASKLSSGCDYALFKEGILPMWEDNRNKQGGRWLLSIDKQLRHFELDRLWLETLLCLVGNCFEEYSREVCGAVVNIRTKRDKIALWTSEAEDKAGVMQIGQIYKERLGISTKTIIGYQAHADTAAKSNNLANKFVV
chain 2: EKKRYDREFLLGFQFIFASMQKPEGLPHISDVVLDKANKT
B2: mouse eIF4E1B (63-244) [mouse] / eIF4E-binding motif of human eIF4EBP1 (50-83) [human] (parent complex)
chain 1: B1 chain 1
chain 2: TRIIYDRKFLMECRNSPVTKTPPRDLPTIPGVTS
B3: mouse eIF4E1B (63-244) [mouse] / eIF4E-binding motif of human eIF4ENIF1 (27-63) [human] (parent complex)
chain 1: B1 chain 1
chain 2: PHRYTKEELLDIKELPHSKQRPSCLSEKYDSDGVWDP

Variants of: B1
Assay: pulldown with E. coli lysates, quantified; n = 3 independent experiments; parent: 0.3; read off a plot

In order of rising screen value:
1. chain 1 K46E  ~0.13 rel. to Mm eIF4E
2. chain 1 K50N  ~0.22 rel. to Mm eIF4E
3. chain 1 K50N, chain 1 S52M, chain 1 N71E, chain 1 H89R  ~0.22 rel. to Mm eIF4E

Variants of: B2
Assay: pulldown with E. coli lysates, quantified; n = 3 independent experiments; parent: 0.9; read off a plot

In order of rising screen value:
1. chain 1 K50N  ~0.68 rel. to Mm eIF4E
2. chain 1 K50N, chain 1 S52M, chain 1 N71E, chain 1 H89R  ~0.7 rel. to Mm eIF4E
3. chain 1 K46E  ~0.85 rel. to Mm eIF4E

Variants of: B3
Assay: pulldown with E. coli lysates, quantified; n = 3 independent experiments; parent: 2.5; read off a plot

In order of falling screen value:
1. chain 1 K46E  ~1.6 rel. to Mm eIF4E
2. chain 1 K50N  ~1.6 rel. to Mm eIF4E
3. chain 1 K50N, chain 1 S52M, chain 1 N71E, chain 1 H89R  ~1.4 rel. to Mm eIF4E
